The values below come from US20050245438A1 (SALK INSTITUTE FOR BIOLOGICAL STUDIES, published 2005).

Bridge positions count the residues as written; N and C are the ends. Square brackets hold non-standard residues; d marks the D form. * marks the point of attachment. d2Nal(3S-Me) = C[C@@H](c1ccc2ccccc2c1)[C@@H](N)C(=O)O; Phe(4-NH2) = Nc1ccc(C[C@H](N)C(=O)O)cc1; Carbamoyl = NC(=O)*

First the molecules themselves.
B1: (cyclo)H-Cys-Phe-Tyr-threo-(2R,3S)C^βMe-2Nal-Lys-Thr-Phe-Cys-OH (peptide)
peptide: H-CFY[d2Nal(3S-Me)]KTFC-OH
modifications: disulfide 1-8
SMILES: C[C@@H](O)[C@@H]1NC(=O)[C@H](CCCCN)NC(=O)[C@@H]([C@@H](C)c2ccc3ccccc3c2)NC(=O)[C@H](Cc2ccc(O)cc2)NC(=O)[C@H](Cc2ccccc2)NC(=O)[C@@H](N)CSSC[C@@H](C(=O)O)NC(=O)[C@H](Cc2ccccc2)NC1=O
notes: also called Peptide No. 17
B2: (cyclo)H-D-Cys-Phe-Tyr-threo-(2R,3S)C^βMe-2Nal-Lys-Thr-Phe-Cys-OH (peptide)
peptide: H-[dC]FY[d2Nal(3S-Me)]KTFC-OH
modifications: disulfide 1-8
notes: also called Peptide No. 16
B3: (cyclo)Cbm-Cys-Phe-4Aph-D-Trp-Lys-Thr-Phe-Cys-OH (peptide)
peptide: Carbamoyl-CF[Phe(4-NH2)][dW]KTFC-OH
modifications: disulfide 1-8
SMILES: C[C@@H](O)[C@@H]1NC(=O)[C@H](CCCCN)NC(=O)[C@@H](Cc2c[nH]c3ccccc23)NC(=O)[C@H](Cc2ccc(N)cc2)NC(=O)[C@H](Cc2ccccc2)NC(=O)[C@@H](NC(N)=O)CSSC[C@@H](C(=O)O)NC(=O)[C@H](Cc2ccccc2)NC1=O
notes: synthetic cyclic octapeptide; also called Peptide No. 4

T1 sequence (P31391 whole entry): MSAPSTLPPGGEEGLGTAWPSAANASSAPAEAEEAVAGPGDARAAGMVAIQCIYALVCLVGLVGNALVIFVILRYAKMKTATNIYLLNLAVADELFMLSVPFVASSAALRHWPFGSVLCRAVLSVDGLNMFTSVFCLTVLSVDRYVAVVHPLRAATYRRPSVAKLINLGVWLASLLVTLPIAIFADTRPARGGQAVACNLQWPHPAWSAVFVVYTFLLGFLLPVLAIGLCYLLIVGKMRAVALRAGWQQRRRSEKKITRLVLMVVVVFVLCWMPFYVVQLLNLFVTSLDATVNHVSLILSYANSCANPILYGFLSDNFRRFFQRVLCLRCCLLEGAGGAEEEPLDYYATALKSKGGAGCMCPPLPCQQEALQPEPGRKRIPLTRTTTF
T2 sequence (P30874 whole entry): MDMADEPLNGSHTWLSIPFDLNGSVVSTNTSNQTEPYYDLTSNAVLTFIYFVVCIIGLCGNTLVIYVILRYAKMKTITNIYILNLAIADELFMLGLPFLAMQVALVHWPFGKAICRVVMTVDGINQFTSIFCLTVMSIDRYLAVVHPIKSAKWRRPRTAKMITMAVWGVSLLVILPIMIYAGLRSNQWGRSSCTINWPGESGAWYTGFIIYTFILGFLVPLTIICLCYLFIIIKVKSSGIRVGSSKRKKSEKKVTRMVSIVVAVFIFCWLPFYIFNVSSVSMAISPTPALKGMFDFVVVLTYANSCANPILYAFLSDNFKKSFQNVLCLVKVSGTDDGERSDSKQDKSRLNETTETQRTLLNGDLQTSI
T3 sequence (P30872 whole entry): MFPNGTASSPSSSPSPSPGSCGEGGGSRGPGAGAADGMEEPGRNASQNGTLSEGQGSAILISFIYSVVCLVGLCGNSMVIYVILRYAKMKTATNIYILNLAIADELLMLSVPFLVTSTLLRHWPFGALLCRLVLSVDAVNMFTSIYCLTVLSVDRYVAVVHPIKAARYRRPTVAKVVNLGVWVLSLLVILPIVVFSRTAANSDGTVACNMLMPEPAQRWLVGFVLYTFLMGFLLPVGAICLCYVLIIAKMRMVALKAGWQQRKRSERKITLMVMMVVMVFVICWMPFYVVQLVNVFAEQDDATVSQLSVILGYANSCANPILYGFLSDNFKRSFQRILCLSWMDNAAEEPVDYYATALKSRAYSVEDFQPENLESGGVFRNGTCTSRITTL

One assay concerns the target T1, cloned human SRIF receptor SSTR4 (human, UniProt P31391 1-388).
T1 construct: whole, on cells; assayed as cryostat sections of membrane pellets of the transfected cells; also called hSSTR4
Nature of the assay: radioligand displacement (125I-[Leu8,D-Trp22,Tyr25]SRIF-28), membrane pellet sections. On the procedure: (§1) Cells are washed twice with and scraped into ice-cold 0.05 M Tris-HCl (pH 7.4), collected by centrifugation, and homogenized using a rotor/stator/system in the same buffer. After centrifugation at 120 g for 5 min at 4° C., the supernatant is collected and centrifuged again at 48,000 g for 30 min at 4° C. The resulting pellet is resuspended in ice-cold Tris buffer, transferred into a microfuge tube, and centrifuged at 20,000 g for 15 min at 4° C. After withdrawal of the supernatant, the membrane pellet is stored at −80° C.
(§2) Receptor autoradiography is performed on 20 μm thick cryostat sections of the membrane pellets, mounted on microscope slides, and then stored at −20° C. […] Increasing concentrations of the unlabeled peptide are used ranging from 0.1-1000 nM. Unlabeled somatostatin-28 is run in parallel using the same increasing concentrations, as a control. IC₅₀ values are calculated after quantification of the data using a computer-assisted image processing system as known in this art.
Turning to B1, the IC50 was 0.0023 µM.

Take B2: the 50% inhibitory concentration (IC50) is 0.00055 µM.

Molecule B3 displayed an IC50 of 0.0011 µM.

The next assay has as its target T2, cloned human SRIF receptor SSTR2 (human, UniProt P30874 1-369).
T2 construct: whole, on cells; assayed as cryostat sections of membrane pellets of the transfected cells; also called hSSTR2
The description is as above. On the procedure: as §1, §2
On to B1, for which the IC50 turned out to be 0.03 µM.

B2 registered a half-inhibitory concentration (IC50) of 0.012 µM.

In turn, B3 came in with an IC50 of 0.12 µM.

Another assay addresses T3, cloned human SRIF receptor SSTR1 (human, UniProt P30872 1-391).
T3 construct: whole, on cells; also called hSSTR1
The assay is described as above. On the procedure: as §1, §2
Molecule B1 registered a 50% inhibitory concentration (IC50) of 0.41 µM.

In turn, B2 had an IC50 of 0.545 µM.

The molecule B3 came in with a concentration for half-maximal inhibition (IC50) of 0.84 µM.

The next assay deals with T4, cloned human SRIF receptor SSTR5 (human, UniProt P35346 1-364).
T4 construct: whole, on cells; assayed as cryostat sections of membrane pellets of the transfected cells; also called hSSTR5
T4 sequence (P35346 whole entry): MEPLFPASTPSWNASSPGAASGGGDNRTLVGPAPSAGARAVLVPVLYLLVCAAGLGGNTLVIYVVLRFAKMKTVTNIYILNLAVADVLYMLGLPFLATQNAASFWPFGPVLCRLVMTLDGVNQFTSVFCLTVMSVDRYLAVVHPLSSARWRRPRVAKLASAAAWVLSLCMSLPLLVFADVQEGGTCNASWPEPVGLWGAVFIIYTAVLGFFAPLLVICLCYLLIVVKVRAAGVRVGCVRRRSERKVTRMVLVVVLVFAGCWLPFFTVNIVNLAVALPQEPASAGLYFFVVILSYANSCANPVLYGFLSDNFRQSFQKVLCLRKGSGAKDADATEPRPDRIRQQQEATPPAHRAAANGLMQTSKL
Described as above. The method, then:
as §1, §2
The molecule B1 came in with an IC50 of 0.018 µM.

The molecule B2 returned a half-inhibitory concentration (IC50) of 0.027 µM.

For the molecule B3, the half-inhibitory concentration (IC50) came to 0.103 µM.

The target of a further assay is T5, cloned human SRIF receptor SSTR3 (human, UniProt P32745 1-418).
T5 construct: whole, on cells; assayed as cryostat sections of membrane pellets of the transfected cells; also called hSSTR3
T5 sequence (P32745 whole entry): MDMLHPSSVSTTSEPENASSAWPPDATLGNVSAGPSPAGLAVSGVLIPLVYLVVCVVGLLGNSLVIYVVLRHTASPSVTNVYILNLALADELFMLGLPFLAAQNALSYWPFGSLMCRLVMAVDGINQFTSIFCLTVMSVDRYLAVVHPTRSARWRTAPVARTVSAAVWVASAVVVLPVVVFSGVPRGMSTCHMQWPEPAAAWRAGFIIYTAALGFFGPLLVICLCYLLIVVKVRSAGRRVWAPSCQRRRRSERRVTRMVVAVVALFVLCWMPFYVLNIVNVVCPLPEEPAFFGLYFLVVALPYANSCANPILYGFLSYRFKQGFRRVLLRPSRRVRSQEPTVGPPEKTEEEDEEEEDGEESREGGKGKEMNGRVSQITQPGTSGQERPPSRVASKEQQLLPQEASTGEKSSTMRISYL
The description is as above. The method, then:
as §1, §2
B1 yielded an IC50 of 0.018 µM.

Take B2: the IC50 was 0.014 µM.

As to B3, the concentration for half-maximal inhibition (IC50) is 0.65 µM.
